From article PMC6684648

Biological target: human IGF2R extra-cellular domains 1-15 I1572A fused at the C-terminal to rat CD4 (domains 3 + 4), biotin acceptor domain and histidine tag (human) (UniProt P11717)
Assay: SPR; BIAcore T200; about 1800 RU of biotinylated CD4-IGF2R fusion protein immobilised on a CM5 chip loaded with streptavidin; IGF2 256 to 0.125 nM injected for 200 s, 25 °C, 40 μl/min, HBS-EP; 1:1 binding model and steady state analysis

Sequence of human IGF2R extra-cellular domains 1-15 I1572A fused at the C-terminal to rat CD4 (domains 3 + 4), biotin acceptor domain and histidine tag (human) (P11717 41-2304 I1572A): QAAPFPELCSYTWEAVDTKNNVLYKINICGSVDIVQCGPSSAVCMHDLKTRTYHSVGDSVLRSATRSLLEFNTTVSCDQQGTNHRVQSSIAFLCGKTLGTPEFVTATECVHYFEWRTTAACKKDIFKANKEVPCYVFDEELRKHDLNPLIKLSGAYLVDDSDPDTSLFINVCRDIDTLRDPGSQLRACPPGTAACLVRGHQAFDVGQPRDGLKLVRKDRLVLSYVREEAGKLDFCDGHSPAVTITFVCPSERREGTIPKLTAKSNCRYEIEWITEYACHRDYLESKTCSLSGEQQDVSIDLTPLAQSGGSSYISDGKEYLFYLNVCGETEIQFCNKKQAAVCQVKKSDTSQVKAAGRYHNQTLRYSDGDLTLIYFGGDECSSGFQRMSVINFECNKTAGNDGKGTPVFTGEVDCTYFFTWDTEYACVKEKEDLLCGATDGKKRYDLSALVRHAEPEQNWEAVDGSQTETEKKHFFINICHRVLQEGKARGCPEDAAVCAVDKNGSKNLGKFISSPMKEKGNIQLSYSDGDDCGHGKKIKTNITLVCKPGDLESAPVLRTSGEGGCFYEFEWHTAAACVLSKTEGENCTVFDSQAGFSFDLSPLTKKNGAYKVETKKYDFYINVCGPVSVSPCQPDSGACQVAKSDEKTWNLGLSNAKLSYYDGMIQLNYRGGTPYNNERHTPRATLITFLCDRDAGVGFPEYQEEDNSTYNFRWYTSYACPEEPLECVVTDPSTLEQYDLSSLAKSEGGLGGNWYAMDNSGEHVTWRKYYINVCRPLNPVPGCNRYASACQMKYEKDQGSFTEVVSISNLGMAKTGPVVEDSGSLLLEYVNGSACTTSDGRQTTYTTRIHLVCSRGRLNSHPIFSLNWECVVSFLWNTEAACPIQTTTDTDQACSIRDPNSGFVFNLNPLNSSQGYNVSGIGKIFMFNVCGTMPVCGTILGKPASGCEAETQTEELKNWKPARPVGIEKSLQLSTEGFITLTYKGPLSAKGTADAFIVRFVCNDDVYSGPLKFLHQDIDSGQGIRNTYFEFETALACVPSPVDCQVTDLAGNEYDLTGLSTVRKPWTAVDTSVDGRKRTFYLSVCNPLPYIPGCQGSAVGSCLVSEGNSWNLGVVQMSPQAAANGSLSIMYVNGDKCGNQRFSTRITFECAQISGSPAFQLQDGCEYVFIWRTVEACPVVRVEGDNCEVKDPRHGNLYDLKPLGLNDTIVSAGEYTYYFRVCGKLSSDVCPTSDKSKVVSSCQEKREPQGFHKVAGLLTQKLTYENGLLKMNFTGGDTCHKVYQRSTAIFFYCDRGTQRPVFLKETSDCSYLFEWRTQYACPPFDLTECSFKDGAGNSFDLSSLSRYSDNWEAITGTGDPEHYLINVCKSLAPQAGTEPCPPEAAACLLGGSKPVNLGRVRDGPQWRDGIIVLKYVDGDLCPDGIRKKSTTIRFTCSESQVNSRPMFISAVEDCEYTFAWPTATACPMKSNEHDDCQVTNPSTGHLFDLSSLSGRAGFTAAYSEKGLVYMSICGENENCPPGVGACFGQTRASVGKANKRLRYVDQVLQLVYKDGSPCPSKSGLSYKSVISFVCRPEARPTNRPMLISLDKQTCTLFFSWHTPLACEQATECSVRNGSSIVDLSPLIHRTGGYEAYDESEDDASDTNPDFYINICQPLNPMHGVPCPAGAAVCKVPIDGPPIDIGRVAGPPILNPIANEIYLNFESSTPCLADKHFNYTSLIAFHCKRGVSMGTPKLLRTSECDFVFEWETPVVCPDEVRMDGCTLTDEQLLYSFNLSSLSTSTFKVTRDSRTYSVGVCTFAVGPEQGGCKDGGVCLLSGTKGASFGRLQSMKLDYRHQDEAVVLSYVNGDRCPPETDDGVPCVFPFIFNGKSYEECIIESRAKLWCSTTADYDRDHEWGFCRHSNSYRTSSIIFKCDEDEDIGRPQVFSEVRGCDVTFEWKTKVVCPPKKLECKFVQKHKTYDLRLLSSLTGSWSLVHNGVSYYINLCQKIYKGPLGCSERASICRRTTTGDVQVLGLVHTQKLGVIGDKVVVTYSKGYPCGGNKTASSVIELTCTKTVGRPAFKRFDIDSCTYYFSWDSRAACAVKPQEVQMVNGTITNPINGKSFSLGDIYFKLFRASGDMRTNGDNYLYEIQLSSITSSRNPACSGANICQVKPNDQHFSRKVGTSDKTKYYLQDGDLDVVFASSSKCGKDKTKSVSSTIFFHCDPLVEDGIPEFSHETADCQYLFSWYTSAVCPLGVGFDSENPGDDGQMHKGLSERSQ

Substance: human IGF2 (ligand)
- fold reduction of IGF2 binding against wild type: 100 fold
